From US20190315845A1 (ANNEXON, published 2019) come the findings set out here.

Like-named read-outs stand apart in the source and are kept apart here.

The target in assay [1] is T1, human C1q (human, UniProt P02745 23-245; P02746 28-253; P02747 29-245).
T1 construct: Purified human C1q protein (plate-coated in ELISA, ligand or analyte in SPR, in human serum in CH50); also called hC1q; complement factor C1q
The assay can be described thus: SPR Biacore T200, heterogeneous ligand model, KD1; hC1q immobilised (ligand), IgG analyte.

Assay [2] deals with T1, human C1q. The assay can be described thus: SPR Biacore T200, 1:1 model, single cycle kinetics; hC1q immobilised (ligand), IgG analyte.
For assay [3], the target named is T2, mouse C1q (mouse, UniProt P98086 23-245; P14106 26-253; Q02105 30-246).
T2 construct: Purified mouse C1q protein; also called mC1q
T2 sequence (P98086 23-245 limits assumed, chain 1 of 3): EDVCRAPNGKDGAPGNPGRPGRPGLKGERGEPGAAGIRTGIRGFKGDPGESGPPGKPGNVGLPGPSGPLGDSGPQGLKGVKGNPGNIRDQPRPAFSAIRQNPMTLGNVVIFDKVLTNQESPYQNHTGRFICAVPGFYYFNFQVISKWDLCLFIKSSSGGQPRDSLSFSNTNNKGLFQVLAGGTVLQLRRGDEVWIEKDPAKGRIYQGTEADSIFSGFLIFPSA
T2 sequence (P14106 26-253 limits assumed, chain 2 of 3): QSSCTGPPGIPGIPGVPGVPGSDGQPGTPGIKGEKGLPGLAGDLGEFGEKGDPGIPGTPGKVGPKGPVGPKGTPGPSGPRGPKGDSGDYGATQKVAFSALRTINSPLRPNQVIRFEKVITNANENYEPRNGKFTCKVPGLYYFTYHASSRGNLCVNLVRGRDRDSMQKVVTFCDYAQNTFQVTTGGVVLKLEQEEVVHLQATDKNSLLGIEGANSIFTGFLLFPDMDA
T2 sequence (Q02105 30-246 limits assumed, chain 3 of 3): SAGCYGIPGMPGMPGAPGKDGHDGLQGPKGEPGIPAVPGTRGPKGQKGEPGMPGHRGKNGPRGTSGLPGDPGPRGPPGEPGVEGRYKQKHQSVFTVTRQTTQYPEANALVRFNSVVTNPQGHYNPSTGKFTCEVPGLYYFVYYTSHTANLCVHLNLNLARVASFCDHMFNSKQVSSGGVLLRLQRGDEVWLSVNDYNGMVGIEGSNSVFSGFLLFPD
The assay is described as follows: competition ELISA, plate-coated mouse C1q; competitor biotinylated chimeric M1 (0.03 µg/ml); IC50 normalised to chimeric M1. The protocol:
(§1) The binding of humanized M1 variants to mouse C1q was analyzed by competition ELISA on four selected antibodies, VH1/Vκ1, VH3/Vκ1, VH3/Vκ4 and VH4/Vκ3. An irrelevant IgG4 (S241P L248E) antibody was also included as a binding control. A three-fold dilution series of test antibody (100 μg/ml to 0.046 μg/ml) was premixed with a constant concentration of biotinylated chimeric M1 antibody (0.03 μg/ml, final concentration) before incubating for 1 hour at 37° C. with shaking on plates pre-coated with mouse C1q at 5.0 μg/ml. The binding of chimeric M1 antibody was detected with streptavidin-peroxidase conjugate (Sigma-Aldrich cat. no. S5512) and TMB substrate (Thermo Scientific cat. no. 34029). The reaction was stopped with 1M HCl, absorbance read at 450 nm on a Dynex Technologies MRX TC II plate reader and the binding curves plotted.
(§2) The binding curves were used to calculate IC₅₀ values for each antibody normalized to the IC₅₀ of chimeric M1 (Table 2).
Background: In an ELISA, binding on a coated surface is turned into a signal by an enzyme label.

Assay [4] concerns the target T1, human C1q. The assay is described as follows: SPR Biacore T200, heterogeneous ligand model, kd2; hC1q immobilised (ligand), IgG analyte.
For assay [5], the target named is T1, human C1q. The assay can be described thus: competition ELISA, plate-coated human C1q; competitor biotinylated mouse M1 (0.02 µg/ml); IC50 normalised to chimeric M1. The protocol: (§3) The binding of humanized M1 variants to human C1q was analyzed by competition ELISA. A three-fold dilution series of test antibody (5 μg/ml to 0.002 μg/ml) was premixed with a constant concentration of biotinylated mouse M1 antibody (0.02 μg/ml, final concentration) before incubating for 1 hour at 37° C. with shaking on plates pre-coated with human C1q at 1.0 μg/ml. The binding of mouse M1 antibody was detected with streptavidin-peroxidase conjugate (Sigma-Aldrich cat. no. 55512) and TMB (3,3′,5,5′-tetramethylbenzidine) substrate (Thermo Scientific cat. no. 34029). The reaction was stopped with 1M HCl, absorbance read at 450 nm on a Dynex Technologies MRX TC II plate reader and the binding curves plotted.
(§4) The binding curves were used to calculate IC₅₀ values (concentration of test antibody that inhibits labelled competitor binding by 50%) for each antibody normalized to the IC₅₀ of chimeric M1 and antibody yields from NS0 transfectants were also compared (Table 1).

For assay [6], the target named is T1, human C1q. The assay can be described thus: SPR Biacore T200, heterogeneous ligand model, ka1; hC1q immobilised (ligand), IgG analyte.
For assay [7], the target named is T1, human C1q. The assay can be described thus: SPR Biacore T200, 1:1 model; IgG immobilised (ligand), hC1q analyte; analysis 1. A general note: Surface plasmon resonance follows binding to a sensor surface in real time, without labels.
In assay [8] the target is T1, human C1q. The assay can be described thus: SPR Biacore T200, heterogeneous ligand model, kd1; hC1q immobilised (ligand), IgG analyte.
Assay [9] has as its target T1, human C1q. The assay is described as follows: SPR Biacore T200, 1:1 model; IgG immobilised (ligand), hC1q analyte; mean of 2 analyses.
Assay [10] concerns the target T1, human C1q. The assay is described as follows: competition ELISA on plate-bound human C1q against biotinylated mouse M1 antibody (0.02 µg/ml); bound biotin-M1 read as OD450.
Source text: (§5) FIG. 4A, FIG. 4B, FIG. 4C, and FIG. 4D depicts competition ELISA assays for human C1q. A dilution series of purified humanized anti-C1q antibodies were competed against a fixed concentration of biotinylated monoclonal antibody M1 for binding to human C1q. Bound biotinylated M1 antibody was detected using streptavidin-peroxidase conjugate and TMB substrate. FIG. 4A depicts the results with the humanized antibodies VH1/Vκ1, VH1/Vκ2, and VH1/Vκ3. FIG. 4B depicts the results with the humanized antibodies VH1/Vκ4, VH2/Vκ1, VH2/Vκ2, VH2/Vκ3, and VH2/Vκ4. FIG. 4C depicts the results with the humanized antibodies VH3/Vκ1, VH3/Vκ2, VH3/Vκ3, and VH3/Vκ4. FIG. 4D depicts the results with the humanized antibodies VH4/Vκ1, VH4/Vκ2, […], and VH4/Vκ4.
as §3

The target of assay [11] is T1, human C1q. The assay is described as follows: SPR Biacore T200, heterogeneous ligand model, KD2; hC1q immobilised (ligand), IgG analyte.
Assay [12] addresses T1, human C1q. The assay can be described thus: cell-based or functional assay.
Another assay addresses rat C1q (rat, UniProt P31720 23-245; P31721 26-253; P31722 29-245). The assay can be described thus: cell-based or functional assay.
For assay [13], the target named is T2, mouse C1q. The assay can be described thus: competition ELISA on plate-bound mouse C1q against biotinylated chimeric M1 antibody (0.03 µg/ml); bound biotin-chimeric M1 read as OD450. How it is done:
as §1, §2

Assay [14] concerns the target T1, human C1q. The assay is described as follows: SPR Biacore T200, 1:1 model; IgG immobilised (ligand), hC1q analyte; analysis 2.
Assay [15] deals with T1, human C1q. The assay can be described thus: SPR Biacore T200, heterogeneous ligand model, ka2; hC1q immobilised (ligand), IgG analyte.
The target of assay [16] is T1, human C1q. The assay can be described thus: competition ELISA on plate-bound human C1q against biotinylated mouse M1 antibody (0.02 µg/ml); bound biotin-M1 read as OD450.
Source text: as §5, §3
The source holds these as a separate data set.

Assay [17] deals with T2, mouse C1q. The assay can be described thus: competition ELISA, plate-coated mouse C1q; competitor biotinylated chimeric M1 (0.03 µg/ml); IC50 normalised to chimeric M1 (reference itself). How it is done: as §1, §2
Assay [18] has as its target T1, human C1q. The assay can be described thus: competition ELISA on plate-bound human C1q against biotinylated mouse M1 antibody (0.02 µg/ml); bound biotin-M1 read as OD450.
Source text: as §5, §3
The source holds these as a separate data set.

Assay [19] concerns the target T1, human C1q. The assay can be described thus: competition ELISA, plate-coated human C1q; competitor biotinylated mouse M1 (0.02 µg/ml); IC50 normalised to chimeric M1 (reference itself). How it is done:
as §3, §4

Assay [20] addresses T1, human C1q. The assay can be described thus: competition ELISA on plate-bound human C1q against biotinylated mouse M1 antibody (0.02 µg/ml); bound biotin-M1 read as OD450.
Source text: as §5, §3
This is another data set of the same source.

T1 sequence (P02745 23-245 limits assumed, chain 1 of 3): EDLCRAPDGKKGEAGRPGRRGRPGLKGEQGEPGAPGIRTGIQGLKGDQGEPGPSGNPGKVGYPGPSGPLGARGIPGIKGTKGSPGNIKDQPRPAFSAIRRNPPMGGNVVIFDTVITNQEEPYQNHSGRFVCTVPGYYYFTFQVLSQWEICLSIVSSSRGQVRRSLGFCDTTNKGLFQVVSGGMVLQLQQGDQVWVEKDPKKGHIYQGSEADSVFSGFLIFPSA
T1 sequence (P02746 28-253 limits assumed, chain 2 of 3): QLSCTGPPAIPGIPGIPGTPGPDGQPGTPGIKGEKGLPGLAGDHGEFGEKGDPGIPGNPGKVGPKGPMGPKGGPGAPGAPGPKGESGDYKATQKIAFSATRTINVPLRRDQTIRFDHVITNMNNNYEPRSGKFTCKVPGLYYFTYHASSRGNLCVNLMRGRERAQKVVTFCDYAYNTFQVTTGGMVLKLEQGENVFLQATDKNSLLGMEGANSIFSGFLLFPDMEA
T1 sequence (P02747 29-245 limits assumed, chain 3 of 3): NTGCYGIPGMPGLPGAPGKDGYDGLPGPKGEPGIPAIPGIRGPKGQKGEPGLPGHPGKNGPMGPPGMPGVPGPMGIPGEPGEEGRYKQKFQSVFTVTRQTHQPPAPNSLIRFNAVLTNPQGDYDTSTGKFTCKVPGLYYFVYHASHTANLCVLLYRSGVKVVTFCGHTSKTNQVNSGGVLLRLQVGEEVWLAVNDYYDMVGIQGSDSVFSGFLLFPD
rat C1q, sequence (P31720 23-245 limits assumed, chain 1 of 3): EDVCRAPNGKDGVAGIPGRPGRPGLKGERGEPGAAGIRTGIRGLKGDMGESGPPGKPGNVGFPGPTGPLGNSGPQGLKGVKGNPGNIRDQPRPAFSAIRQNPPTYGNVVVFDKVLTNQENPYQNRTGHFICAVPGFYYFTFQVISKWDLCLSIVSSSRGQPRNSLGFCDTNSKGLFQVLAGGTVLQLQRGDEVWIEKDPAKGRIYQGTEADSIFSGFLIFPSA
rat C1q, sequence (P31721 26-253 limits assumed, chain 2 of 3): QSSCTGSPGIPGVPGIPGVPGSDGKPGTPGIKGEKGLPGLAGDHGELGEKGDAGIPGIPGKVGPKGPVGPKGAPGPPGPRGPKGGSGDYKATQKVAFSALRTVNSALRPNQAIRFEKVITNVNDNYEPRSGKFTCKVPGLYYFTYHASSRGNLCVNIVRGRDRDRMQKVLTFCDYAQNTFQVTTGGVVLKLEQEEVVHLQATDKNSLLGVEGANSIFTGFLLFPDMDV
rat C1q, sequence (P31722 29-245 limits assumed, chain 3 of 3): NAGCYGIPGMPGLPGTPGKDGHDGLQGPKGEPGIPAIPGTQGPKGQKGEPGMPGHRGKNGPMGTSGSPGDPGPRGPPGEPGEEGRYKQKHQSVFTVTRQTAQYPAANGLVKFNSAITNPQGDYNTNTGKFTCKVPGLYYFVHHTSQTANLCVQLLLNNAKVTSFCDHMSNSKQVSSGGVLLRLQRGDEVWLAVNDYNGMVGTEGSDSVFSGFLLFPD

B1: humanized anti-C1q antibody VH3/Vκ3 (full-length IgG) (antibody)
heavy: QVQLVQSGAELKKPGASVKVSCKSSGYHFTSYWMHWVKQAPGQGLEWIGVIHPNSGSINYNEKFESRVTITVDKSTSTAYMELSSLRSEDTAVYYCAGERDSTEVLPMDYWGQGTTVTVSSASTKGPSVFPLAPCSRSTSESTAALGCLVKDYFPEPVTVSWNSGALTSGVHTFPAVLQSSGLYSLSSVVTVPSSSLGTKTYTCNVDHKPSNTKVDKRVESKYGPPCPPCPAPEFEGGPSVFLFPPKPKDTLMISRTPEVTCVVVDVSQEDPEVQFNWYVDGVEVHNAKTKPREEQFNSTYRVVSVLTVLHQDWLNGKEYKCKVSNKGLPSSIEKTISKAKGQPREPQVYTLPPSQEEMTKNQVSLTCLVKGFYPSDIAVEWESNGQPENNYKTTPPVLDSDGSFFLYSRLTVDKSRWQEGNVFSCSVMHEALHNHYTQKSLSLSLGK
light: DVQITQSPSSLSASLGERATINCRASKSINKYLAWYQQKPGKAPKLLIYSGSTLQSGIPARFSGSGSGTDFTLTISSLEPEDFAMYYCQQHNEYPLTFGQGTKLEIK
notes: Full-length human IgG4 (S241P L248E) / human kappa, expressed in NS0; also called IgG VH3/Vκ3; IgG-VH3/Vκ3; not shown: human kappa light chain constant region
In the case of B1, the Kd in the assay with human C1q [1] was determined as 22700 pM; with human C1q [2], 7.9 pM; in the assay with human C1q [7], 6.7 pM; with human C1q [9], 5.8 pM; in the assay with human C1q [11], 7300 pM; with human C1q [14], 4.9 pM. For the same molecule, the koff with human C1q [2] was 3.1e-07 s⁻¹; with human C1q [4], 1.1e-07 s⁻¹; in the assay with human C1q [7], 6.4e-06 s⁻¹; in the assay with human C1q [8], 4.6e-06 s⁻¹; with human C1q [9] it was 5.8e-06 s⁻¹; in the assay with human C1q [14], 5.1e-06 s⁻¹. The kon came to 39000 M⁻¹ s⁻¹ with human C1q [2]; 200000 M⁻¹ s⁻¹ with human C1q [6]; 960000 M⁻¹ s⁻¹ with human C1q [7]; 1e+06 M⁻¹ s⁻¹ with human C1q [9]; 1.1e+06 M⁻¹ s⁻¹ with human C1q [14]; 16000 M⁻¹ s⁻¹ with human C1q [15]. In addition, the “Relative IC50” value in the assay with mouse C1q [3] was 1.5 ratio to chimeric M1; in the assay with human C1q [5] it was 0.63 ratio to chimeric M1. Besides, the “IC50 (read off the curve)” value with human C1q [10] is roughly 0.2 µg/mL; with mouse C1q [13], roughly 5 µg/mL. Besides, the “amount of antibody required to inhibit 50% of human CH50 hemolysis” value in the assay with human C1q [12] is roughly 60 ng. Further, the “amount of antibody required to inhibit approximately 50% to approximately 80% of rat CH50 hemolysis” value in the assay with rat C1q is roughly 60 ng.

B2: chimeric M1 antibody (antibody, human IgG4)
heavy: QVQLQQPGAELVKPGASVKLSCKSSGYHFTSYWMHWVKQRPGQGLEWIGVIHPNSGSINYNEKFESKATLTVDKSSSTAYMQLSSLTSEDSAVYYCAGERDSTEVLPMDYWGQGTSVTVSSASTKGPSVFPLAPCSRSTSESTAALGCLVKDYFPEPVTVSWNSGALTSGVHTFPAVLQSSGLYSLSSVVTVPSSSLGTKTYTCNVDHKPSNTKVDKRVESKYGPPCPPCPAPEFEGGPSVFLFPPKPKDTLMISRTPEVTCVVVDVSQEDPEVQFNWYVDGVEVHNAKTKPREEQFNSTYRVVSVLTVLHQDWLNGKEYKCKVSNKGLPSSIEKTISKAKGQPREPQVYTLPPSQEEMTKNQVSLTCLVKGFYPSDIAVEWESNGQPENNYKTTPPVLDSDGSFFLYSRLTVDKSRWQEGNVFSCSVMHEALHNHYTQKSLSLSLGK
light: DVQITQSPSYLAASPGETITINCRASKSINKYLAWYQEKPGKTNKLLIYSGSTLQSGIPSRFSGSGSGTDFTLTISSLEPEDFAMYYCQQHNEYPLTFGAGTKLELK
notes: Murine M1 V regions with human IgG4 (S241P L248E) and human kappa constant regions, expressed in NS0; also called 3E2; not shown: human kappa light chain constant region
As to B2, the “IC50 (read off the curve)” value in the assay with human C1q [16] was roughly 0.3 µg/mL; with human C1q [18], roughly 0.3 µg/mL; with human C1q [10] it was roughly 0.3 µg/mL; in the assay with human C1q [20], roughly 0.3 µg/mL; with mouse C1q [13], roughly 3 µg/mL. For the same molecule, the “Relative IC50” value in the assay with mouse C1q [17] and in the assay with human C1q [19] was 1 ratio to chimeric M1 each time.

Broadly, the Kd is the constant that tells how readily two partners part at equilibrium. The low end stands for tighter binding, the high end for weaker binding. The koff is the rate constant with which the complex falls apart. The kon is a measure of how fast the partners come together. The low end stands for slow association, the high end for fast association.
